Reference: patent publication US20190307847A1 (NGM BIOPHARMACEUTICALS, published 2019)

Target: mouse FGFR4/β-klotho complex co-expressed in rat L6 myoblast cells (mouse, UniProt Q03142 17-799; Q99N32 1-1043)
Assay: cell-based or functional assay

Sequence of mouse FGFR4/β-klotho complex co-expressed in rat L6 myoblast cells (Q03142 17-799, chain 1 of 2): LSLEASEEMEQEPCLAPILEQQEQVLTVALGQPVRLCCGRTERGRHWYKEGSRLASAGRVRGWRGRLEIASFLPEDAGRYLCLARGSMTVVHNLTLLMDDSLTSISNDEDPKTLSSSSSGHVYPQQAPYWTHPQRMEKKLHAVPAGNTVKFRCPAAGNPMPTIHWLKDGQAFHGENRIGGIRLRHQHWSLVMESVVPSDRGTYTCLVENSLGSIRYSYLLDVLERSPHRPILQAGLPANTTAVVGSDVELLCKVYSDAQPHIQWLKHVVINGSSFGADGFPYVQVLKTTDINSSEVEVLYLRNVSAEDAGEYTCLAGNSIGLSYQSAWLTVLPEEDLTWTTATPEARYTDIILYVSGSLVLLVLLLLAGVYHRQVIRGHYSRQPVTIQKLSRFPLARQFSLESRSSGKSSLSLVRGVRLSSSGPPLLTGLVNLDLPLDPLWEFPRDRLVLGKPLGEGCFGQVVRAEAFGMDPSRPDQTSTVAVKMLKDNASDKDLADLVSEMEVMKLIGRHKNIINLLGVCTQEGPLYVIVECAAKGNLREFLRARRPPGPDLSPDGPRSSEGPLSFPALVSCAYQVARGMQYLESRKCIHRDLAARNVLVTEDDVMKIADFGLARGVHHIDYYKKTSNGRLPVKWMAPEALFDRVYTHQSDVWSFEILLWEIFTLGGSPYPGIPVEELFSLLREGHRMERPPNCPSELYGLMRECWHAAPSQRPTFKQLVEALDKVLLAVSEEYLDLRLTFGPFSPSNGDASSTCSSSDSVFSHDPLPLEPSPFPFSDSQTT
Sequence of mouse FGFR4/β-klotho complex co-expressed in rat L6 myoblast cells (Q99N32 whole entry, chain 2 of 2): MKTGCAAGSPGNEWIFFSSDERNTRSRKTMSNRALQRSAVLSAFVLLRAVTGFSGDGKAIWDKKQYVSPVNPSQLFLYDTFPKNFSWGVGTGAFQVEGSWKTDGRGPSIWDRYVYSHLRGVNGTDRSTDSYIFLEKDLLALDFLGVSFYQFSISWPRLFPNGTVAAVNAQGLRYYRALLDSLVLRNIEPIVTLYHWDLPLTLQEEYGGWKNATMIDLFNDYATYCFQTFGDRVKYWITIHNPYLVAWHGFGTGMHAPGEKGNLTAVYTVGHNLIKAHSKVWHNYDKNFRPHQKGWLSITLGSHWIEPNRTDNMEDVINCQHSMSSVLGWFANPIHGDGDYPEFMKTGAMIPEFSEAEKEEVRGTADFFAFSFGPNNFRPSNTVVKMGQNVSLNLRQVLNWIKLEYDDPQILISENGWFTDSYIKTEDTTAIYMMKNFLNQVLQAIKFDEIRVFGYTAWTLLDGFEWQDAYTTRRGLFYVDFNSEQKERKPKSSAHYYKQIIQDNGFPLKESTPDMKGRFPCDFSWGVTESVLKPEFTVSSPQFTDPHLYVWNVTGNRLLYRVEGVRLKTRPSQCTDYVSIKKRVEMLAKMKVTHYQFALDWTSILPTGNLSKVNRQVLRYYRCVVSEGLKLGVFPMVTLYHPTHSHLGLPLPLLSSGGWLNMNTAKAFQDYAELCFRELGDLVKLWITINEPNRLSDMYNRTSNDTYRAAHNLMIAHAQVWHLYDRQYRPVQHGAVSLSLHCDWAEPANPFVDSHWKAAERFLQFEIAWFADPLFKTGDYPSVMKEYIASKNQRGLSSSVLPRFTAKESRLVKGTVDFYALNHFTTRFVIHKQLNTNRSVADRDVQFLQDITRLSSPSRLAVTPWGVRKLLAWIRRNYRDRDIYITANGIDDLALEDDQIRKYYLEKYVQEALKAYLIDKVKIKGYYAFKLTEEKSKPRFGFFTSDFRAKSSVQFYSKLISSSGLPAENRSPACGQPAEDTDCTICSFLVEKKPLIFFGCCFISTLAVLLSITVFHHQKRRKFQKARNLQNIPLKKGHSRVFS

EC50 (pM), ELK luciferase assay in L6 cells: 38.3 pM | Emax (fold potentiation), ELK luciferase assay in L6 cells: 1.85 fold potentiation
B1: FGF19 variant M70 (ligand)
chain: MRDSSPLVHYGWGDPIRLRHLYTSGPHGLSSCFLRIRADGVVDCARGQSAHSLLEIKAVALRTVAIKGVHSVRYLCMGADGKMQGLLQYSEEDCAFEEEIRPDGYNVYRSEKHRLPVSLSSAKQRQLYKNRGFLPLSHFLPMLPMVPEEPEDLRGHLESDMFSSPLETDSMDPFGLVTGLEAVRSPSFEK
